This note sets out measurements from patent US20040241222A1, “Lipid-polymer-conjugates compositions” (priority 2001, published 2004).

The nature of data set [1]: Kinetics of 3H-labelled liposomes containing lipid-polymer-conjugates after a single intravenous injection to the rat (blood circulation time). Type of data set: in vivo. Particulars: intravenous administration to rats, compared with corresponding PEG-grafted liposomes. Here is the method: 100 μl was transferred to a scintillation vial (20 ml).
100 μl of Solvable was added. This was incubated for at least 1 hour.
100 μl of 1 mM EDTA and 200 μl H2O2 30% were added. This mixture was incubated for 24 hours at room temperature and overnight at 50° C. thereafter.
Ultima Gold (10 ml) was added as the scintillation fluid.
Radioactivity was measured by LSC.
The increase of blood circulation time was assessed, wherein: […]

The nature of data set [2]: Storage stability of liposomal preparations (percentage encapsulated prednisolone phosphate versus time). Type of data set: physicochemical. To be noted: prednisolone phosphate-containing liposome suspensions, nitrogen atmosphere, 4° C. (FIG. 3). An excerpt:
FIG. 3 is a graphical representation of the percentage encapsulated prednisolone phosphate in PEG-DSPE and PHEA-DODASuc, respectively, containing liposomal preparations versus time (example 26).

A short description of data set [3]: Particle size and polydispersity of liposomes by dynamic light scattering. Type of data set: physicochemical. To be noted: prednisolone phosphate-containing DPPC/cholesterol liposomes, light scattering (Malvern Zeta-sizer). How it is done: The lipid loss during preparation of the liposomes was 25%, determined by comparing the final radioactivity of the preparation with the activity before the extrusion procedure. The suspension of liposomes was stored in a nitrogen atmosphere at 4° C.
Liposomes were prepared using the film method, as described in example 23. Instead of egg phosphatidylcholine dipalmitoyl phosphatidylcholine was used. 5 mM HEPES buffer was added to the dry lipid film and shaken during 5 minutes in the presence of glass beads in order to enable complete hydration of the lipid film. The liposomes were sized by extrusion 12 times through 2 stacked PC membranes having pore sizes of […]. The resulting liposome dispersions were dialysed (MWCO 10,000) and average particle sizes were determined using dynamic light scattering technique. See table 1 for the properties of the liposomal preparations.

Data set [4] in a line: Encapsulation efficiency of prednisolone phosphate in liposomes (HPLC). Type of data set: physicochemical. Particulars: prednisolone phosphate-containing DPPC/cholesterol liposomes.

PHEG-Diaminobutane DODASuc [Ex. 8.1]: the “Blood circulation time of the liposomes” value in data set [1] is listed as “Results similar to those obtained with the corresponding PEG-grafted liposomes”.
Consider “Poly(2-hydroxyethyl)-L-asparagine DODASuc [Ex. 14]”, for which the “Blood circulation time of the liposomes” value in data set [1] was “Results similar to those obtained with the corresponding PEG-grafted liposomes”. Besides, the “Storage stability compared with PEG-DSPE reference liposomes” value in data set [2] is recorded as “performed slightly better”.
Regarding “Poly(D,L-methionine Sulfoxide) DODASuc [Ex. 18]”, the “Blood circulation time of the liposomes” value in data set [1] is “Results similar to those obtained with the corresponding PEG-grafted liposomes”.
In the case of “PEG-distearoylphosphatidylethanol-amine [PEG-DSPE]”, the Mean particle size in data set [3] is roughly 90 nm. Besides, in data set [4], the “Encapsulation efficiency of the prednisolone phosphate” value came out at 2.6%.
